Experiment: yeast display, Sf9 membrane polyspecificity reagent, FACS + sequencing; frameworks hold sequencing errors
Outline: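 Synthetic nanobody libraries on Saccharomyces cerevisiae BJ5465 were galactose-induced for 36–48 hours, stained 1 hour at 4 °C with 10% biotinylated, detergent-solubilized Sf9 membrane reagent and enriched on streptavidin microbeads. FACS then separated cells into low and high (top ~1%) gates by anti-HA (expression) and streptavidin (reagent binding) fluorescence. Genes were colony-PCR amplified, MiSeq 2 × 250 sequenced and CDR-length filtered. A clone's polyreactivity label is that of its gate of origin.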

Sequence | polyreactivity (PSR sort gate)
QVQLVESGGGLVQAGGSLRLSCADSGSSFPSYAMLWYRQAPGKERELVAAISSSGGRTYYADYVKGRFTISRDNAKNTVYLQMNSLIPVDTAVYYCAADRRKWPTGGYWGEGTQVTVSS | high polyreactivity
QVQLVESGGGLVQAGGSLRLSCADSGSTFPFYAMGWYSHSPGKERELVAAITSGGSTYADYVKGRFTISRDNAKNTVYLQMNSLNPEDTAVYYCAGSWPRWWRFGYWGQGTQVTVSS | low polyreactivity
QVQLVESGGGLVQAGGSLRLSCADSGSTFQANAMGWYRQAPGKERELVATISNDGSTKYADSVKGRFTISRDNAKNTVYLQMNSLKPEDTALYYCAADSARHGRDTYQPEYRNDYWGQGTQVTVSS | low polyreactivity
QVQLVESGGGLVQAGGSLRLSCADSGSTFRYYAMGWYRQAPGKERELVAAITKNGGSTYYADSVKGRFTISRDNAKNTVYLEMNSLKPEDTAVYYCAVQFSYSGWYYVSYYYWGQGTQVTVSS | high polyreactivity
QVQLVESGGGLVQAGGSLRLSCADSGSTFTSNAMRWYRQAPGKEREFVAAINWGGSITYYADSVKGRFTISRDNAKNTVYLQMNSLKPEDTAVYYCAAETYYDTYYPEGDYWGQGTQVTVSS | low polyreactivity
QVQLVESGGGLVQAGGSLRLSCADSGSTFTVYVMGWYRQAPGKETEFVAAITRIGGSTYYADSVKGRFTISRDYAKNTVYLQRNCLKTEDTAVYYCATYHTNSYYQLLYDYWGQGTQVTVSS | low polyreactivity
QVQLVESGGGLVQAGGSLRLSCADSGSTFYHNAMGWYRQAPGKERELDDAIRFSGTSTYYADSVKGRFTISRDNAKNTVYLQMNSLKPEDTAVYYCAAEVSSPAQREFDYWGQGTQVTVSS | low polyreactivity
QVQLVESGGGLVQAGGSLRLSCADSGSTFYRYAMGWYRPAPGKERELVAAISKRGGSTYYADSVKGRFTISRDNAKNTVYLQMNSLKPEDTAVYYCAADPFHYGGGDDYWGQGTQVTVSS | high polyreactivity
QVQLVESGGGLVQAGGSLRLSCADSGSTITYYTMGWYRQAPGKERDLVAAISGSGGRTYYADSVKGRFTISRDNAKNTVYLQMNSLKPEDTAVYYCAAGYQLSRYDYWGQGTQVTVSS | high polyreactivity
QVQLVESGGGLVQAGGSLRLSCADSGSTIYGYAMGWYRQAPGKERELVAAISISGGGTYYADSVKGRFTISRDNAKNSVYLQMNSLKPEDTAVYYCARRYFWGQGTQVTVSS | low polyreactivity
QVQLVESGGGLVQAGGSLRLSCADSGYIFYYNAMGWYRQAPGKERDLVATITSGGSTYYADSLKGRFTISRDNAKNTVYLQMNSLKPEDTAVYYCAAPSQSIRYTYIRSYYWGQGTQVTVSS | low polyreactivity
QVQLVESGGGLVQAGGSLRLSCADSRFNYSYNAMGSYRKAPGKERELVAAISTSGGRTYYADSVKGRFTISRDNAKNTVYLQMNSLKPEDTAVYYCAALSRNQYDPQSYVYWGQGTQVTGSS | high polyreactivity
QVQLVESGGGLVQAGGSLRLSCAGSGFIFNVYAMGWYRQAPGKARELVAAISRSGGSTYYADSVKGRFTISRDNAKNTVYLQLNSLKPEDTAVYYCNARTPPSYYDMGYWGQGTQVTVSS | high polyreactivity
QVQLVESGGGLVQAGGSLRLSCAGSGITFVAYAMGWYRQAPGKDRELVAAISGGGGSTYYADSVKGRFTISRDNAKNTVYLQMNSLKPEDTAVYDCNAEPYTSSGGYRGYDFDYWGQGTQVTVSS | low polyreactivity
QVQLVESGGGLVQAGGSLRLSCAGSGRIFQRNDMGWYRQAPGKARELVAGITGCGGRTYYADSVKGRFTISRDNEKNTVYLQMNSLKPEDTAVYYCAAALWSSRGRVLSRRDYWGQGTQVTVSS | high polyreactivity
QVQLVESGGGLVQAGGSLRLSCAGSGRIFREYPMGAYRHAPGKARELVAAITASGGGTYYADSVKGRFTLSRDNAKNTVYLQMNSLKPEDSAVYYCNAVLAPGGYDYWGQGTQVTVSS | low polyreactivity

Sequence | polyreactivity (PSR sort gate)
QVQLVESGGGLVQAGGSLRLSCAGSGRIFTDYTMGWYRQAPGQERELVAAISYSGGSTYYADSVKGRFTISRDNAKNTVYLQMNSLKPEDTAVYYCNKDYYLHEGYGYWGQGTQVTVSS | low polyreactivity
QVQLVESGGGLVQAGGSLRLSCAGSGSIFGVYDLGWYRQAPGKERELVAVINSNGGSTYYADSVKGRFTISRDNAKNTVYLQMNSLKPEDTAVYYCAADYQSYVYIGYGYWGQGTQVTVSS | low polyreactivity
QVQLVESGGGLVQAGGSLRLSCAGSGSIYSYNAMGWYRQAPGKERELVAAIDWSGGSTYYADSVKGRFTLSRDNAKNTVYLQMNSLKPEDTAVYYEYDYWGQGTQVTVSS | low polyreactivity
QVQLVESGGGLVQAGGSLRLSCAGSGSTFGWYVMGWYRQAPGKERELVASITGSGGSTYYADSVKGRFTISRDNAKNTAYLQMNSLKPEDTAVYYCAADTGWYDDWTHDYWGQGTQVTVSS | low polyreactivity
QVQLVESGGGLVQAGGSLRLSCAPSGFIFDGYTMGWYRQAPGKETELVAAITTSGTSTYYADSVKGRFTISRDNAKNTVYLQMNSLKPEDTAVYYCAARQYRHRVKYYYWGQGTQVTVSS | high polyreactivity
QVQLVESGGGLVQAGGSLRLSCAPSGFIFRYYAMGWYRHAPGKERELVAAISRTSGRTYYADSVKGRFTISRDNAKNTVYLQMNSLKPEYTAVDYCAAVVRNPGTYEYWGQGTQVTVSS | high polyreactivity
QVQLVESGGGLVQAGGSLRLSCAPSGFTFLKNAMGWYRQAPGKERELVAAITGSGGSTYYADSVKGRFTISRDTEKNTVYLQMYSLKPEDTAVYYCNVRRGLRDYEYWGQGTQVTVSS | high polyreactivity
QVQLVESGGGLVQAGGSLRLSCAPSGIIFFAYAMGWYRQAPGKERELVAAISSSGGRTYYADSVKGRFTISRDNAKHTVYLQMNSLKPEETPVYYCNARWHGSFDYWGQGTQVTVSS | low polyreactivity
QVQLVESGGGLVQAGGSLRLSCAPSGITLVRYAMGWYRQAPGKERELVAAISSSGGSTYYADSVKGRFTISRDNAMNPVYLQMNSLKPEDTAVYYCAKRLYYGDPPTYDYWGQGTQVTVSS | high polyreactivity
QVQLVESGGGLVQAGGSLRLSCAPSGNIFAINALGWYRQAPGKESELVATITGGGGSTSYADSVKGRFTISRDNAKNTVYLQMNSLKPEDTAVYSCAADTVYYYGEWYDYWNYVWFDYWGQGTQVTVSS | low polyreactivity
QVQLVESGGGLVQAGGSLRLSCAPSGRIFAYNTMGGYRQAPGKERELVAVSTSGGSTNYADSVKRRFTISRDNAKNTVYLQMNSLKTEDTAVYYCATLETTGVNYWGQGTQVTVSS | high polyreactivity
QVQLVESGGGLVQAGGSLRLSCAPSGRIFKRNTMGWYRQAPGKVRELVAAITGSSGSTYYADSVKGRFTISRDNAKNNVLLQMNSLKPEDTAVYYCNTVRSVYQYWPYNYWGQGTQETVSS | high polyreactivity
QVQLVESGGGLVQAGGSLRLSCAPSGRIFSWNAMGWYRQAPGKERELVAAISVRGGSTYADSVKGRFTISRDNAKNTVYLQMNSLKPEDTAVYYCAKTYYPYRLGEGQYEYDYWGQGTQVTVSS | low polyreactivity
QVQLVESGGGLVQAGGSLRLSCAPSGRIFSYNTMGWYRQAPGKERELVAAISRGGSTYYADSVKGRFTISRDNAKNTVYLQMNSLKPEDTAVYYCNALLPPGSRKYNYWGQGTQVTVSS | high polyreactivity
QVQLVESGGGLVQAGGSLRLSCAPSGRIFTRYARGWYRQAPGKERELVAVITRSGGSTYYADSVKGRFTISRDNAKNTVYLQMNSLKPEDTAVYYCAAKYYGEMYYWGQGTHVTVSS | low polyreactivity
QVQLVESGGGLVQAGGSLRLSCAPSGRIFWRYAMGWYRQAPGKERELVAGITYSGGRTYYADSVKGRFTISRDNAKNSVFLQMNSLKPEDSAVYYCAARGYFDALVDYWGQGTQVTVSS | low polyreactivity
